Measured values as given in patent US20190144549A1 (TILOS THERAPEUTICS, published 2019).
Substitutions are numbered along the chain they refer to.

Tests used:
[1] = molecular target: T1, human LAP-TGFβ2 on HT1080 cells (human, UniProt P61812 21-414); assay: summary table; binding to human TGFβ2
T1 construct: also called human TGFβ2
T1 sequence: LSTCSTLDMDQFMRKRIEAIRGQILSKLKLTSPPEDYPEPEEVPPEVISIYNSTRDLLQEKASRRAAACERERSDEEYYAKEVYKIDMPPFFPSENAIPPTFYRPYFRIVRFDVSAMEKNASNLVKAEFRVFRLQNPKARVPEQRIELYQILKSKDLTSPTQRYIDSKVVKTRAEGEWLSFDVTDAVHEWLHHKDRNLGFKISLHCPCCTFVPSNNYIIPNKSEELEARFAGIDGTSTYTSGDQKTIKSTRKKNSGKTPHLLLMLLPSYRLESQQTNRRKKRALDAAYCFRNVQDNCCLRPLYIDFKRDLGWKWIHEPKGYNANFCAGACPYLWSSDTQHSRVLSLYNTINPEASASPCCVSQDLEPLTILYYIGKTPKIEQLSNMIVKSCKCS
Procedure: (§1) Briefly, 4×10⁵ each of (a) HT1080 cells, (b) HT1080 cells overexpressing human LAP-TGFβ1, (c) HT1080 cells overexpressing human LAP-TGFβ2, (d) HT1080 cells overexpressing human LAP-TGFβ3, (e) HT1080 cells overexpressing murine LAP-TGFβ1, (f) P3U1 cells, (g) P3U1 cells overexpressing LAP-TGFβ1 and GARP, and (h) P3U1 cells overexpressing LAP-TGFβ1 and LRRC33 were cultured in 96-well plates. The plates were centrifuged for 5 min at 1,500 rpm, liquid was removed, and cells were resuspended with 200 μL FACS buffer. The plates were centrifuged again, diluted primary antibody was added to each well, and the plates were incubated on ice for 20 minutes, followed by centrifugation. The cells were resuspended in 200 μL FACS buffer, centrifuged again, and resuspended in 50 μL diluted secondary antibody (Alexa647-anti-Human IgG or APC-anti-Mouse IgG). The plates were incubated on ice for 20 minutes in the dark, washed twice with 200 μL FACS buffer, and cells from each well (in 200 μL FACS buffer) were read on the Attune NXT instrument.

[2] = molecular target: T2, human LAP-TGFβ3 on HT1080 cells (human, UniProt P10600 24-412); assay: summary table; binding to human TGFβ3
T2 construct: also called human TGFβ3
T2 sequence: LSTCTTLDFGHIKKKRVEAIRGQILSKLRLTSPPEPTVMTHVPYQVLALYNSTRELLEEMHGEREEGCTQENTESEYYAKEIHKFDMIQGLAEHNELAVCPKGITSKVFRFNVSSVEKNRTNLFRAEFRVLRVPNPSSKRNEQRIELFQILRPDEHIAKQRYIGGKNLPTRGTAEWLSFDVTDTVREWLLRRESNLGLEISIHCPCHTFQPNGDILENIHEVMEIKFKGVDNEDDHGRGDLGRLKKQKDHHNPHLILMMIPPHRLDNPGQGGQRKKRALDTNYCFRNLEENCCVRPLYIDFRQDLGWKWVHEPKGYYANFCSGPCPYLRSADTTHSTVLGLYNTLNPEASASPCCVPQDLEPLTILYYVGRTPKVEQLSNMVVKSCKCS
Procedure: as §1

[3] = molecular target: T3, murine LAP-TGFβ1 on transfected cells (murine, UniProt P04202 30-390); assay: cell-based or functional assay
[4] = molecular target: T4, human LAP-TGFβ1 on transfected cells (human, UniProt P01137 30-390); assay: cell-based or functional assay
[5] = molecular target: T5, human LAP-TGFβ1 with a Y74T mutation on HT1080 cells (human, UniProt P01137 30-390); assay: flow cytometry, HT1080 cells overexpressing the variant
T5 construct: also called HT1080-Y74T; Y74T (open) LAP-TGFβ1 variant
Procedure: as §1
(§2) Briefly, 4×10⁵ each of (a) HT1080 cells, (b) HT1080 cells overexpressing human LAP-TGFβ1, (c) HT1080 cells overexpressing LAP-TGFβ1 with K27C and Y75C mutations, (d) HT1080 cells overexpressing LAP-TGFβ1 with a Y74T mutation, and (e) HT1080 cells overexpressing the LAP-only variant were cultured in 96-well plates. […]

[6] = molecular target: T6, mature TGFβ1 (free human TGFβ1, without LAP) (human, UniProt P01137 279-390); assay: inhibition of a TGFβ1 ELISA after pre-incubation with mature TGFβ1
T6 construct: also called free TGFβ1
Procedure: To determine whether anti-LAP antibodies 28G11_hIgG1, 22F9_hIgG1, 20E6_hIgG1, 17G8_hIgG1, and 24E3_hIgG1, bind to free human TGFβ1 (i.e., mature TGFβ1 that lacks LAP), the ability of the antibodies to inhibit an anti-TGFβ ELISA was evaluated. Briefly, mature TGFβ1 (1000 μg) was incubated with the indicated anti-LAP antibodies at 10 μg/mL, an isotype control antibody as a negative control or the anti-TGFβ antibody 1D11 as a positive control for 10 minutes on ice. Supernatants were assayed in a TGFβ1 ELISA (R&D Systems) according to the manufacturer instructions to measure free TGFβ1.

[7] = molecular target: T7, LAP-only variant (human LAP without mature TGFβ1) on HT1080 cells (human, UniProt P01137 30-277); assay: flow cytometry, HT1080 cells overexpressing the LAP-only variant
T7 construct: Overexpressed on HT1080 cells; also called HT1080-emptyLAP; empty LAP
Procedure: as §1, §2

[8] = molecular target: T1, human LAP-TGFβ2 on HT1080 cells; assay: flow cytometry, HT1080 cells overexpressing human LAP-TGFβ2
Procedure: as §1

[9] = molecular target: T2, human LAP-TGFβ3 on HT1080 cells; assay: flow cytometry, HT1080 cells overexpressing human LAP-TGFβ3
Procedure: as §1

[10] = molecular target: T8, recombinant human LAP-TGFβ1-Fc fusion protein (human, UniProt P01137 30-390); assay: bio-layer interferometry (ForteBio), single concentration
T8 construct: also called human TGFβ1 in absence of anchor protein (ForteBio); not shown: Fc part, linker and order of fusion not described
From the text: The ability of the antibodies to bind in this assay provides definitive evidence that the antibodies bind to LAP-TGFβ1 in the absence of an anchor protein.

[11] = molecular target: T4, human LAP-TGFβ1 on transfected cells; assay: summary table; binding to human TGFβ1 on transfected cells
[12] = molecular target: T9, LAP (LAP-TGFβ1) expressed endogenously on murine cells (murine, UniProt P04202 30-390); assay: summary table; binding to GARP+ murine cells
T9 construct: Natural LAP-TGFβ1 on primary mouse cells, GARP+ or GARPneg; also called LAP on murine platelets, T cells, Tregs, B cells, tumour immune cells

[13] = molecular target: T3, murine LAP-TGFβ1 on transfected cells; assay: summary table; binding to murine TGFβ1 on transfected cells

T4 sequence (P01137 other isoform, or with tags, fused parts or gaps): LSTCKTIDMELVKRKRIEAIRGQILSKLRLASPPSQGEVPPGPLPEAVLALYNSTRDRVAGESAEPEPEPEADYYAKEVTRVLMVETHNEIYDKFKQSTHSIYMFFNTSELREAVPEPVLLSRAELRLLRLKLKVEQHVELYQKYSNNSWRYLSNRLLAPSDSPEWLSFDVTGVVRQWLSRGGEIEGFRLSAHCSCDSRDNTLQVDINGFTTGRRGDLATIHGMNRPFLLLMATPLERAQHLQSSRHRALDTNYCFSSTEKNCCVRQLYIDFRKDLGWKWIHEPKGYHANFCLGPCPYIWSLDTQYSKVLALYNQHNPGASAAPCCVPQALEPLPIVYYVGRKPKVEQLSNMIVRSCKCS
T3 sequence (P04202 30-390): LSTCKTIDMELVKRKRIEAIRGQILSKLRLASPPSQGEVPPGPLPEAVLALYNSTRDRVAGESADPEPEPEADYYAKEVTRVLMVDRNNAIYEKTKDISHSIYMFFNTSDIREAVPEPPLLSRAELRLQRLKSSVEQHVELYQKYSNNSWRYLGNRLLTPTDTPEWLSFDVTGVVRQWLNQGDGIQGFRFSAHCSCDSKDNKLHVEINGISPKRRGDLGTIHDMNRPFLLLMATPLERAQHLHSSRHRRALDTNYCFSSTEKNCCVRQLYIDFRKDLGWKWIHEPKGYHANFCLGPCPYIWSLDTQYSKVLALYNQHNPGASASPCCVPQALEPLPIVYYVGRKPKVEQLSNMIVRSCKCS
T8 sequence (P01137 other isoform, or with tags, fused parts or gaps limits assumed): as the sequence (P01137 other isoform, or with tags, fused parts or gaps) above
T6 sequence (P01137 279-390 limits assumed): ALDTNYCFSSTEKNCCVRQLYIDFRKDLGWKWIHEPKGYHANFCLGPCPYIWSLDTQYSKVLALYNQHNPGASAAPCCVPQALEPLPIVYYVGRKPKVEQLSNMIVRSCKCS
T7 sequence (P01137 30-277 limits assumed, change not shown): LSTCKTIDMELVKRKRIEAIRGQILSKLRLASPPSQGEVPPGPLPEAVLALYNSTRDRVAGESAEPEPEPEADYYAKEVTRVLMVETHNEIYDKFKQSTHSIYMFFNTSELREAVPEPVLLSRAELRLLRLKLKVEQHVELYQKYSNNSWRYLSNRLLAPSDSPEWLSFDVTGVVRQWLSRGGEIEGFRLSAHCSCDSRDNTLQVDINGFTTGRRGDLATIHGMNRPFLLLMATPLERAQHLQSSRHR
T5 sequence (P01137 other isoform, or with tags, fused parts or gaps Y74T Y74T): as the sequence (P01137 other isoform, or with tags, fused parts or gaps) above, with Y74T counted along it
T9 sequence (P04202 30-390): as the sequence (P04202 30-390) above

B1: 28G11 (antibody, V domains shown)
VH: EVKLVESGGGLVQPGGSLSLSCAASGFTFTDYYMSWVRQPPGKALEWLGFIRNKPNGYTTEYSASVKGRFTISRDNSQSILYLQMNVLRAEDSATYYCARYTGGGYFDYWGQGTTLTVSS
VL: DIQMTQTTSSLSASLGDRLTISCRASQDISNYLNWYQQKPDGTVKLLIYYTSRLHSGVPSRFSGSGSGTDYSLTISNLEQADIATYFCQQGDTLPWTFGGGTKLEIK
notes: Mouse hybridoma antibody; Used biotinylated or dye-conjugated in cell assays; also called 28G11_(hyb); 28G11_hyb
[1]
  binding result: no binding
[2]
  binding result: no binding
[3]
  IC50 of inhibition of TGFβ1 activation, P3U1 cell assay: 1 µg/mL
[4]
  IC50 of inhibition of TGFβ1 activation, P3U1 cell assay: 1.4 µg/mL

B2: 28G11_hIgG1 (antibody, V domains shown)
VH: B1 VH
VL: B1 VL
notes: 28G11 in human IgG1 format, by its name
[5]
  binding result: no binding
[6]
  binding result: no binding (tested: 10 µg/mL)
[7]
  binding result: no binding
[8]
  binding result: no binding
[9]
  binding result: no binding

B3: 16B4 (antibody, V domains shown)
VH: QVTLKESGPGILQPSQTLSLTCSFSGFSLNTFGMGVGWIRQPSGKGLEWLAHIWWDDDKYYNPALKSRLTISKDTSKNQVFLKIANVDTADTATYYCARIYYYGSWGLYYFDYWGQGTTLTVSS
VL: B1 VL with L19V, A81E, D92N, W96P
[10]
  binding result: no binding
[11]
  binding result: no binding

B4: 7H4 (antibody, V domains shown)
VH: DVQLQESGPGLVKPSQSLSLTCSVTGYSITSGYYWNWIRQFPGNKLEWMGYISYDGTNNYNPSLKNRISITRDTSKHQFFLKLNSVTTEDTATYYCARSFYNNYFDFWGQGTTLTVSS
VL: DIQMTQSPSSLSASLGGKVTITCKASQDIDKYIAWYQHKPGKGPRLLIHYTSTLQPGIPSRFSGSGSGRDYSFNISNLEPEDIATYYCLQYDNLRTFGGGTKLEIK
[12]
  binding result: binds
[13]
  binding result: binds
